Substitutions are numbered along the chain they refer to.

Results on 30 molecules are retold here after patent publication US20230176070A1.

The chains are these.
B1: H39 (VHH)
VHH: QVQLVESGGGLVQAGVSLRLSCAASERTFSSYIMGWFRQAPGKEREFIAAISWSGGNTDYAGSVQGRFTISRDNAQNTVYLQMNSLEPEDTAVYYCAADATHSWSYGSRWYDRNYNYWGQGTQVTVSS
B2: H31 (VHH)
VHH: QVQLVESGGGLVQPGGSLRLSCTPSGFRLEDYPIAWFRQAPGKEREGLSCITSGDGRTYYEESVKGRFTISRDNAQNKVYLQMNKLTPEDTAVYHCATVPSDNLCGYLHRRPFASWGQGTQVTVSS
B3: H23 (VHH)
VHH: DVQLVESGGGLVQAGGSLTLSCAASGRTFSSSTMGWFRRAPGKEREFVAAISGSARTTDYADSVKGRFTISRDNAKNTVYLQMISLKPEDTAIYYCARKRVVDVTTSNYELRYDYWGQGTQVTVSS
B4: H42 (VHH)
VHH: HVQLVESGGGLVQAGGSLRLSCAASGLTFSNYAMGWFRQAPGKEREFVVAISWSGANTYYSDSVKGRFTASRDNAKKTVYLQMNSLKPEDTAVYYCAADYRGLGYSTAHEYDYWGQGTQVTVSS
B5: H44 (VHH)
VHH: EVQLVESGGGLAQAGGSLRLSCAASGGTFSNSCMGWFRQAPGMEREFVAIIRSTGHTTYADSVEGRFTVSRDIAKNTVYLEMNSLKPEDTAVYSCAAGASDYGCYHTSGISYWGQGTQVTVSS
B6: H32 (VHH)
VHH: HVQLVESGGGLVQAGGSLRLSCAASDTIDNYARAWFRQAPGKEREFVAAITWTFGTPYYTDSVKGRFTISRDDAKNTVYLQMNSLKPEDTAVYYCAASLYLPVRTASGGYRLDTDRPQYWGQGTQVTVSS
B7: H40 (VHH)
VHH: EVQLVESGGGLVQAGASLRLSCAASGGTFSSYIMGWFRQAPGKEREFVAAISWSGRSTHYADSVKGRFAISRDNDRVYLQMNSLKPEDTAVYSCAADPNYTWRDDRYYREEGYTYWGQGTQVTVSS
B8: H10 (VHH)
VHH: DVQLVESGGGLVQAGGSLRLSCRASGLPFGPYTMGWFRQTPGQEREFVAAITWSSMNTNYADSVKGRFTISRDSAKNTVYLQMNTLKPDDTAVYYCAADDRAVPMLGDFEDYIYWGQGTQVTVSS
B9: H13 (VHH)
VHH: HVQLVESGGGLVQAGGSLRLSCAASGRTFSTYHMGWFRQAPGKAREFVAAITGSGGITYYADSVKGRFTISRDNAKNTVYLQMNSLKPEDTAVYYCAADTRAYGLVPSTTSSRYNYWGQGTQVTVSS
B10: H37 (VHH)
VHH: QVQLVESGGGLVQAGGSLRLSCAASGLTFSNYALGWFRRAPGKERDFVAAISYSGGSTDYADSVKGRFTISRDNAKNTVYLQMNSLKPEDTAVYYCAAAYLGWGTARTAYEYWGQGTQVTVSS
B11: H38 (VHH)
VHH: B10 VHH with Q1H, G26E, L34M, D46G, N77K, L101M, T108S
B12: H33 (VHH)
VHH: HVQLVESGGGLVQAGGSLRLSCAASGRTLSSYDMGWFRQPPGKEREFVAAITRHDFNTFYRDSVKGRFTISRDNAKNTVYLQMNSLKSEDTAVYFCAARLDPIFASNSEYAPLYDYWGQGTQVTVSS
B13: H34 (VHH)
VHH: B12 VHH with H1Q, Q39K, P40A, F56Y, F59Y, E109A, A111S, P112N
B14: P2 (VHH)
VHH: DVQLVESGGGLVQAGGSLRLSCAASGHTFSSYTMGWFHQAPGKEREFVAEISGTGGNTGYADSVKGRFTISRDNAKNTVYLQMNSLKPEDTAVYYCAAVIGSPTDSSDYRSSLDYDYWGQGTQVTVSE
B15: P3 (VHH)
VHH: B14 VHH with H27R, S52G
B16: NbPDZ P10 (VHH)
VHH: DVQLVESGGGLVQAGGSLRLSCTASGRTFSTYTMAWFRQAPGKEREFVAAITWSGTYYADSVKGRFTISRDNAKNTMYLQMNSLKPEDTAVYICAAVIGSTVDSYSPSDPLEYDYWGQGTQVTVSE
B17: G51 (VHH)
VHH: QVQLVESGGGLVQAGGSLKLSCAASGITFSINTIGWYRQAPGKQREFVAHITSDSTTYYADSVKARFTISRDSAKNTVHLQMNNLKPEDTAVYYCNVNPTWPYGGEVDYWGQGTQVTVSS
B18: G65 (VHH)
VHH: QVQLVESGGGLVQAGGSLRLSCATSGRTFSTYALGWFRQRPGKEREFVATIHWSDGRTLYADSVKGRFTLSRDNAQNTVYLQMNSLKPEDTAIYYCAASIYRIGSYDVSTSQGYDYWGQGTQVTVSS
B19: G66 (VHH)
VHH: B18 VHH with L34M, A61T, I93V, S99A, I100T, D115N
B20: G67 (VHH)
VHH: HVQLVESGGGLVQAGGSLRLSCVASGHTVSNYAMAWFRQAPGKEREFVAGISWRATLTYYRDSVKGRFTISRDNAKNTVYLQMSSLKPEDTAVYFCASDRTPYVSRGTSLVEYDYWGQGTQVTVSS
B21: G70 (VHH)
VHH: QVQLVESGGGLVQAGGSLRLSCAASGATFSINAIGWYRQAPGKQRELVAVIKSGNSINYADSVKGRFTISRDHAKNTVYLQMNNLKPEDTAVYYCHADQPPETGWGTWNDLWGQGTQVTVSS
B22: G68 (VHH)
VHH: EVQLVESGGGLVQAGGSLRLSCTASGSIFSVNVMDWYRQAPGKQREFVATITGSGATNYADSVKGRFTISRGSAKNTVYLQMNSLKPDDTAVYYCHNADYREDGYEYDNWGQGTQVTVSS
B23: G52 (VHH)
VHH: EVQLVESGGGLVQAGGSLRLSCAASGSTFSSKPIGWYRQAPGKGRDLVAAIGGGSSTFYVDSVKGRFTMSRDNAKNTVALQMNSLKPEDTAVYYCNEYLGPKVLPIGSWGQGTQVTVSS
B24: G58 (VHH)
VHH: EVQLVESGGGLVQAGGSLRLSCAGSGDTFSRYTLGWFRQAPGKEREFVAGISWSGGSTSYANSVKGRFTISRDNAKNTMYLQMNSLKPEDTAVYTCAAPGLPGTVVVGASDFYVYWGQGTQVTVSS
B25: G54 (VHH)
VHH: QVQLVESGGGLVKPGESLKLSCVASGETLSSYIMGWFRQAPGKEREFVAAVSWSGNQQDYADSVKGRFTISRDNAEKTVDLQMNSLNPEDTAVYYCAGDQIGFWSSRTQAHEYEYWGQGTQVTVSS
B26: G73 (VHH)
VHH: EVQLVESGGGLVQAGGSLRLSCAASGRTFSDDAMAWFRQAPGKEREFVAAISWHPENTFYADSVKGRFTISRDKTKNTEYLQMNSLKPEDTAVYYCAAGPRLEIGDYAQYKYWGQGTQVTVSS
B27: G69 (VHH)
VHH: QVQLVESGGGLVQAGGSLRLSCVDSGRTFSSNTMGWFRQAPGKDRDFVAAINRSGVITNYADSVKGRFTISRDNAKNTVYLQLNSLKPEDTAVYYCAARAGGWPSQIPVEYDRWGQGTQVTVSS
B28: G64 (VHH)
VHH: HVQLVESGGGLVQAGGSLRLSCKVSGTTFSNSAIGWYRQAPGNRRELVATINYGGSTNYADSGKGRFTISKDNAKNTVYLQMNSLKPEDTAVYYCKTTEWREDGYEYDVWGQGTQVTVSS
B29: G53 (VHH)
VHH: HVQLVESGGGLVQAGGSLRLSCVASGFTYSTYTMGWFRQAPGKEREIVAAKNWSGARIYYTESVKGRFTISRDSGSNTMYLQMDSLKPEDTAVYYCAARLTWTDTTTPTTYPYWGQGTQVTVSS
B30: G77 (VHH)
VHH: QVQLVESGGGLVQAGGSLRLSCTASRSTFRVNPAGWYRQAPGKERELVARITSGGSTNYADSVKGRFTISRDNAKNTVYLQMNSLKPEDTAVYYCNVPYYMEDGYEHDAWGQGTQVTVSS

Sequence of human serum albumin (human) (P02768 25-609 limits assumed): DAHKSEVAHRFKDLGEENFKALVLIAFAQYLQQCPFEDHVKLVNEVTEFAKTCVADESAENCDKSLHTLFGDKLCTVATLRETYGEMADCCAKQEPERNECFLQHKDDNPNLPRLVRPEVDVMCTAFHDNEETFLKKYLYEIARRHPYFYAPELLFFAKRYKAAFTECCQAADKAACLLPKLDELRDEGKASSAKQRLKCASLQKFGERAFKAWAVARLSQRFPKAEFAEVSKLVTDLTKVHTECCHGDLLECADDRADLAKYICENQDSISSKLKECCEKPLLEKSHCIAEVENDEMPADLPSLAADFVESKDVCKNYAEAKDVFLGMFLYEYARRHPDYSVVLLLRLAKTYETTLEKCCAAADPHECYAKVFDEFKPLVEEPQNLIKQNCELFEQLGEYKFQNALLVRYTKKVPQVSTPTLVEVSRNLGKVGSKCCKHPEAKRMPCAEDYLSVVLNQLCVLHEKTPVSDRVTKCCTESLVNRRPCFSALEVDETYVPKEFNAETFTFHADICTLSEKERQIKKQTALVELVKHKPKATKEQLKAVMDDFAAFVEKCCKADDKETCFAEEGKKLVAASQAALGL
Sequence of glutathione S-transferase [GST: P08515] (P08515 whole entry): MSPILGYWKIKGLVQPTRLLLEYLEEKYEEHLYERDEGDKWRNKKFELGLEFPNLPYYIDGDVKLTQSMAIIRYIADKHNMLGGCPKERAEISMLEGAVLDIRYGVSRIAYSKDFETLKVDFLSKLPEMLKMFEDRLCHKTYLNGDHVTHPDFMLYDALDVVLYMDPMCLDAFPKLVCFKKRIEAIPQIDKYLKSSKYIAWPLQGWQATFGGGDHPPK

One test concerns the target human serum albumin (human) (UniProt P02768). Put plainly: indirect ELISA, HSA coated.
For the molecule B1, the ELISA affinity (LogIC50 (oD450nm)) stood at 5.2.
On the same count and under the same terms, then B2, with 1.07.
With B3, the ELISA affinity (LogIC50 (oD450nm)) was found to be 1.62.
As to B4, the ELISA affinity (LogIC50 (oD450nm)) worked out at 4.92.
As to B5, the ELISA affinity (LogIC50 (oD450nm)) came out at 5.62.
Still for that read-out and setting: next, B6: 5.33; B7: 3.16.
On to B8, for which the ELISA affinity (LogIC50 (oD450nm)) stood at 1.46.
As to B9, the ELISA affinity (LogIC50 (oD450nm)) was 1.96.
The same measure, in the same setting: then B10, with 1.49; and B11, with 2.44.
On the same count and under the same terms, then B12, with 5.03; and B13, with 5.07.

The next test has as its target GST fusion PDZ mutant protein (R46E:K48D) (mammalian (so in the source)) (UniProt P57105). Description: indirect ELISA, PDZ R46E:K48D coated. On the technique in general: In an ELISA, binding on a coated surface is turned into a signal by an enzyme label.
Take B14: the Mutant ELISA affinity (LogIC50 (oD450nm)) turned out to be 4.35.
In turn, B15 displayed a Mutant ELISA affinity (LogIC50 (oD450nm)) of 4.78.
In turn, B16 showed a Mutant ELISA affinity (LogIC50 (oD450nm)) of 3.83.

The target of the next test is T1, PDZ domain of mitochondrial outer membrane protein 25 (mammalian (so in the source)) (UniProt P57105).
T1 sequence (looked up): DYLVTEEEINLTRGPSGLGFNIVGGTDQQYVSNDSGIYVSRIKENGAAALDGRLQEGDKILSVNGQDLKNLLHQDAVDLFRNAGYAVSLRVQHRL
Description: indirect ELISA, wild type PDZ coated.
B14 returned a WT ELISA affinity (LogIC50 (oD450nm)) of 5.44.
Still for that read-out and setting: then B15, with 5.26.

For another test, the target named is GST fusion PDZ mutant protein (R46E:K48D) (mammalian (so in the source)) (UniProt P57105). Put plainly: ELISA, wild type PDZ against PDZ R46E:K48D.
B14: the Affinity fold change turned out to be 12.1 fold.
On the same count and under the same terms, then B15, with 3.04 fold; and B16, with 23.5 fold.

Another test addresses glutathione S-transferase [GST: P08515]. Description: indirect ELISA, GST coated.
B17: the ELISA affinity (LogIC50 (oD450nm)) was 4.45.
As for B18, the ELISA affinity (LogIC50 (oD450nm)) came out at 3.97.
Still for that read-out and setting: next, B19: 4.29; B20: 3.6; B21: 1.75.
In turn, B22 gave an ELISA affinity (LogIC50 (oD450nm)) of 1.07.
In turn, B23 yielded an ELISA affinity (LogIC50 (oD450nm)) of 1.
The same measure, in the same setting: then B24, with 1.54; and B25, with 1.54.
The molecule B26 returned an ELISA affinity (LogIC50 (oD450nm)) of 0.955.
The same measure, in the same setting: then B27, with 3.69.
On the same count and under the same terms, then B28, with 5.68; and B29, with 5.37; and B30, with 6.01.
